Measurements reported in patent publication US20210130799.

Assays:
Test in all cases: cleavage_in_vitro
[1] = target: T1, TtCsm6 (Thermus thermophilus) (UniProt Q53W17); conditions: cyclic, 3'-5' linked; c(AMP)4 amount required to activate RNase
T1 sequence: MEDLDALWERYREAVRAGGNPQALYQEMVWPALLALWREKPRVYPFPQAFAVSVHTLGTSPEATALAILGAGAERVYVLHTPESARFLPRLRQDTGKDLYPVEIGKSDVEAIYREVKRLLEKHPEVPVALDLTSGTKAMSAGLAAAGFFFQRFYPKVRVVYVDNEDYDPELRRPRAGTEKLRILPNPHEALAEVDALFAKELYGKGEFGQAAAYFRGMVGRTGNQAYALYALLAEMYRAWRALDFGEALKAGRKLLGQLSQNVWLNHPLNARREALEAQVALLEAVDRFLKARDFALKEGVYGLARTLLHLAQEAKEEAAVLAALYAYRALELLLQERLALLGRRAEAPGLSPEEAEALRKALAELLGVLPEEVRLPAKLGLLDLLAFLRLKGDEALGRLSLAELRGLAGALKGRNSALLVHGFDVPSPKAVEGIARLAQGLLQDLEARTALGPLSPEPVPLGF

[2] = system: StCsm6' (Streptococcus thermophilus DGCC8004)
[3] = system: StCsm6 (Streptococcus thermophilus DGCC8004)
[4] = cyclic, 3'-5' linked, c(AMP)6 amount sufficient to activate RNase on RNA NS

Sequence: AAAA [c(AMP)4]
- activity [1]: 50 nM

Sequence: AAAAAA [c(AMP)6]
- activity [2, 4]: 5 nM
- activity [3, 4]: 0.5 nM

Sequence: GGGCGGCAAAUUGAGGAUUUCGUAACUGUUUAAUUCUGUUCACUUAUUCCACCAACAAAAGGUGGCGA [RNA NS]
- activity ([2]; StCsm6' concentration for degradation with cyclic oligoadenylates, 1 uM needed without, 1 mM EDTA, 37 C): 1 nM
- activity ([3]; lowest StCsm6 concentration for degradation with 0.5 uM cyclic oligoadenylate mix, 1 uM needed without, 1 mM EDTA, 37 C): 1 nM
